Data on one substance can be found in article doi:10.1101/2022.11.10.515920.

pKd: −log10 of the molar value.

The target of test [1] is commercial adalimumab reference product from CHO cells (Humira). In words: SPR. On the technique in general: Surface plasmon resonance follows binding to a sensor surface in real time, without labels.
In test [2] the target is adalimumab produced in BY-2 lysate. In words: SPR.

human FcR I (CD64), sequence (P12314 16-292): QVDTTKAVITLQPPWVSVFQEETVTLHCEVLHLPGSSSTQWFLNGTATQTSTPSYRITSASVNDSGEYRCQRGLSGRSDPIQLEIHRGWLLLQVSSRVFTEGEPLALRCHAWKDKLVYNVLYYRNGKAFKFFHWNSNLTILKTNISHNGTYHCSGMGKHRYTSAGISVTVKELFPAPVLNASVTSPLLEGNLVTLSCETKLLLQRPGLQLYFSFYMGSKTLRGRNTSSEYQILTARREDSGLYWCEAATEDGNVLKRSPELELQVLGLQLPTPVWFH

By pKd is commonly meant the negative decadic logarithm of the Kd, by convention in mol/L. Low readings indicate a high Kd, high ones a low Kd. Take “human FcR I (CD64) (from UniProt P12314) (receptor)”: the pKd was 9.80 in test [1] and 9.45 in test [2].
